# Source: patent US20260191907A1 (INSTITUT CURIE, published 2026)
# B1: B1 nanobody (anti-FGFR4 sdAb, NaLi-H1 library) (VHH)
# VHH: EVQLQASGGGFVQPGGSLRLSCAASGYTSRSSAMGWFRQAPGKEREFVSAISDLTGYPYYYADSVKGRFTISRDNSKNTVYLQMNSLRAEDTATYYCAAYQDDKWTYGSQHGKYWGQGTQVTVSS
# notes: also called B1 sdAb; not shown: C-terminal Myc/6xHis-tag and an additional cysteine
# B2: B5 nanobody (anti-FGFR4 sdAb, NaLi-H1 library) (VHH)
# VHH: EVQLQASGGGFVQPGGSLRLSCAASGRTSWLTTMGWFRQAPGKEREFVSAISSFSSKQGYYADSVKGRFTISRDNSKNTVYLQMNSLRAEDTATYYCAYASYPRHQGNGRWKDFVEYWGQGTQVTVSS
# notes: Recombinant nanobody of about 17 kDa; also called B5 sdAb; not shown: C-terminal Myc/6xHis-tag and an additional cysteine
# B3: F8 nanobody (anti-FGFR4 sdAb, Gimli library) (VHH)
# VHH: EVQLVESGGGLVQPGGSLRLSCAASGTGYALDDMGWVRQAPGKGLEWVSAISDDESMADYYADSVKGRFTISRDNSKNTVYLQMNSLRAEDTAVYYCASYKEYKYQSGHHYFAYRGQGTLVTVSS
# notes: Recombinant nanobody of about 17 kDa; also called F8 sdAb; not shown: C-terminal Myc/6xHis-tag and an additional cysteine
# How the values were obtained:
# [1] = biological target: T1, FGFR2 expressed on Rh4-FR4ko cells (UniProt P21802 22-821, limits assumed); test: flow cytometry on Rh4-FR4ko cells, which express FGFR1 and FGFR2
# T1 construct: whole, on cells; also called FGFR2 on Rh4 cells
# T1 sequence (P21802 22-821 limits assumed): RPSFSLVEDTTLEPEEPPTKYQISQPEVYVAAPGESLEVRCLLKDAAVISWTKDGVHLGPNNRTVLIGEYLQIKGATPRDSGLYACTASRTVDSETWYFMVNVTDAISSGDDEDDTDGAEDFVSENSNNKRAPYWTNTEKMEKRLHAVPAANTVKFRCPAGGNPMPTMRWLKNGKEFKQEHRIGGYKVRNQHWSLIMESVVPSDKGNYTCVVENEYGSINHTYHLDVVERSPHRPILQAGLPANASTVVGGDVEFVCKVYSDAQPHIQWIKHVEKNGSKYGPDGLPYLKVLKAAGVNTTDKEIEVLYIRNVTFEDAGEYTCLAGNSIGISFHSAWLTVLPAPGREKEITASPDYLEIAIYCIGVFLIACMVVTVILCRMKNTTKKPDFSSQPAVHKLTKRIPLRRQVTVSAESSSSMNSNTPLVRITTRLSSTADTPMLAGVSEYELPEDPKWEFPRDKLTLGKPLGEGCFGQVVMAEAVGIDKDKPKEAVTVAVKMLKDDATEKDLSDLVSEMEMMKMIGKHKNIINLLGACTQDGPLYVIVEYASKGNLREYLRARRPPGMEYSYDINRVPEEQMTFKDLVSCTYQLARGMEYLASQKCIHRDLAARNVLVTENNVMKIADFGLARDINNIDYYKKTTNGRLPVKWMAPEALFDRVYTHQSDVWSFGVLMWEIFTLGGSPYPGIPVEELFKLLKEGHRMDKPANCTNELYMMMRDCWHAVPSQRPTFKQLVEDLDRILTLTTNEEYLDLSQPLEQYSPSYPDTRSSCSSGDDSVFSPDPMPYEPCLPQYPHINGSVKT
# Procedure: The cells were incubated for 1 h with nanobodies at 10 μM (A8, B1, B5, F8, mCh) followed by stimulation of FGFR4 with 50 nM FGF19 for 10 min. Control cells (C) were either not stimulated or stimulated with FGF19 in absence of the nanobodies. The cell lysates were analysed by western blot with anti phospho ERK1/2 antibody. Total Erk1/2 levels are shown as loading control.
# Binding validation of selected phages, recombinant nanobodies and decorated liposomes was performed on Rh4-FR4 wt and Rh4-FR4ko cells. Specificity of selected phage clones binding to FGFR4 was determined by flow cytometry in 96-well plates (Becton Dickinson). Cell surface staining of Rh4-FR4 wt or Rh4-FR4ko cells was performed on ice in PBS supplemented with 1% FBS. 80 μL phages+20 μL PBS/1% milk were incubated on 1×10⁵ cells for 1 h on ice. […] Samples were analyzed after two washes by flow cytometry on a MACSQuant® cytometer (Miltenyi) and results were analyzed with FlowJo™ software (BD Biosciences, France). Phages displaying anti-mCherry nanobodies were used as negative control²⁴ and as positive control we used an anti-FGFR4 antibody (BT53, kindly provided by J. Khan lab, NCI, Bethesda, MD). For binding test of recombinant nanobodies, cells were detached with Accutase® (Stemcell Technologies) and washed with PBS. All following steps were performed on ice: 4×10⁵ cells were incubated with nanobody concentrations of 30 μg/ml for 1 h, washed once with PBS and incubated for an additional 30 min with anti His-tag FITC labeled antibody (LS-C57341, LSBioscience, diluted 1:10). The cells were washed once more with PBS and analyzed. Targeting liposomes were added at 0.5 mM final lipid concentration to cells in 96-well plates and incubated for 2 h at 37° C. and 5% CO₂. The cells were washed twice with PBS and detached with Accutase®.
# Validation of the binding of recombinant nanobodies to cell-surface expressed FGFR4 was performed with Rh4-FR4 wt and Rh4-FR4ko cells by flow cytometry.
# [2] = biological target: T2, Recombinant FGFR4 (G&P Biosciences) (human, UniProt P22455 22-369); test: SPR (BIAcore T200), single cycle kinetics, FGFR4 amine-immobilised, nanobody as analyte, heterogeneous ligand model, component 2 (koff2); heterogeneous ligand model, component 2 (koff2)
# T2 construct: Bought protein; the SPR method says only 'Recombinant; also called rFGFR4; extracellular FGFR4
# T2 sequence: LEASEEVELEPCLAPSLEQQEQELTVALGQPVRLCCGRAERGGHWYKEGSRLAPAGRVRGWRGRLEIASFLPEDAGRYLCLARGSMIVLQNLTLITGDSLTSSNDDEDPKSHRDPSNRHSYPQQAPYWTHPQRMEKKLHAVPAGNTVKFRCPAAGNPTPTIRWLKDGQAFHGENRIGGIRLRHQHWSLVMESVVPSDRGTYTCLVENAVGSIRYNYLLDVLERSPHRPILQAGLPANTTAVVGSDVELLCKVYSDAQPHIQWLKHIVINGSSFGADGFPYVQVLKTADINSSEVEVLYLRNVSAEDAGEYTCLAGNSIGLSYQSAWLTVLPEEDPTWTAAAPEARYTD
# Procedure: FIG. 3: Affinity determination of nanobodies to recombinant protein via surface plasmon resonance spectroscopy. Single cycle kinetics analysis was performed on immobilized FGFR4 through covalent amine binding on the dextran based sensor chip. The analytes A8, B1, B5, F8 and mCh were injected in 5 different concentrations followed by a dissociation phase. A final dissociation step was added after the last injection step to determine Koff rates for the KD calculations. The black curves represent the measured data and red curves show the fit analysis (heterogeneous ligand model) performed with the BIAevaluation software.
# Single cycle kinetics analysis was performed with the BIAcore® T200 instrument (GE Healthcare) on CMD200M sensor chips (XanTec bioanalytics GmbH) activated with a mixture of 300 mM NHS (N-hydroxysuccinimide) and 50 mM EDC (N-ethyl-N′-(dimethylaminopropyl) carbodiimide). Recombinant FGFR1, FGFR2, FGFR3 and FGFR4 (G&P Biosciences) were immobilized on the activated biosensors (800 to 12′000 RU; 1 RU=1 pg/mm²) followed by a blocking step with 1M ethanolamine. […] Koff-rates were determined from a final dissociation step after the last injection. […] Binding parameters were determined with the heterogeneous ligand model fit of the BIAevaluation software. The black curves represent the measured data and red curves show the performed fit analysis. […]
binder,measurement,setting,value
B1,binding result,[1],no binding (tested: 30 µg/ml)
B2,koff,[2],3.75e-08 s⁻¹
B3,binding result,[1],no binding (tested: 30 µg/ml)
